Experimental data as given in US11607466B2, “Tumor and immune cell imaging based on PD-L1 expression” (The Johns Hopkins University, priority 2016, dated 2023).
One block for each molecule: values may come before it.

Experiments:
[1] = biological target: T1, PD-L1 in human NSCLC and TNBC xenografts (Homo sapiens, UniProt Q9NZQ7); details: in vivo; cited from earlier work
T1 construct: host or cells: MDAMB231, SUM149 (TNBC), H2444, H1155 (NSCLC) xenografts in mice

PD-L1 in MDAMB231 cells = biological target: T2, PD-L1 in MDAMB231 cells (Homo sapiens, UniProt Q9NZQ7); assay: In vitro binding of [64Cu]WL12 to MDAMB231 and SUM149 cells; assay type: cell-based; details: 1 h incubation
T2 construct: MDAMB231 breast cancer cells, which naturally express PD-L1; endogenous in cells; host or cells: MDAMB231 (ATCC)
Experimental: (§1) 1.4.9. […] After incubation, cells were washed three times with cold PBS prior to counting on an automated gamma counter (1282 Compugamma CS, Pharmacia/LKBNuclear, Inc., Gaithersburg, Md.). […] Mean fluorescence intensity values were correlated with % incubated dose (% ID) uptake. All the cell uptake studies were performed in triplicate for each cell line and repeated three times.

[2] = biological target: T3, PD-L1 in A549-iPDL1 cells (Homo sapiens, UniProt Q9NZQ7); assay: Binding studies in doxycycline-inducible A549-iPDL1 cells; assay type: cell-based
T3 construct: expressed in transfected cells; host or cells: A549 NSCLC cells, lentiviral pINDUCER20, G418-selected, doxycycline-induced
Source text: To do so, an A549 NSCLC cell line with doxycycline-inducible PD-L1 expression (A549-iPD-L1) was generated. A549 is a Kras G12S lung adenocarcinoma cell line that expresses low PD-L1 at baseline.

[3] = biological target: T4, PD-L1 in A549-iPDL1 tumors (Homo sapiens, UniProt Q9NZQ7); assay: [64Cu]WL12 PET and biodistribution in A549-iPDL1 and A549 xenografts; assay type: in vivo; details: 72 h of doxycycline treatment
T4 construct: expressed in transfected cells; host or cells: A549 NSCLC cells, lentiviral pINDUCER20, G418-selected, doxycycline-induced; as xenografts for the in vivo unit
Source text: To do so, an A549 NSCLC cell line with doxycycline-inducible PD-L1 expression (A549-iPD-L1) was generated. A549 is a Kras G12S lung adenocarcinoma cell line that expresses low PD-L1 at baseline. It has been transduced with PD-L1 in the all-in-one lentivirus pINDUCER20 vector (Meerbrey, et al., 2011), selected with G418, confirmed for PD-L1 induction by flow cytometry (FIG. 37A) and used for in vitro and in vivo studies. Cy5-PD-L1-mAbs binding to doxycycline-treated A549-iPDL1 cells was blocked by WL12 validating the specificity of WL12 (FIG. 37B). […] Accordingly, it is expected that PET will play a key role in quantifying dynamic changes in PD-L1 expression within the standard clinical work flow, providing a novel way to inform therapy decisions.

hPD-L1 tumors [4] = biological target: T5, hPD-L1 tumors (Homo sapiens, UniProt Q9NZQ7); assay: in vivo; set-up: species or system mouse
T5 construct: expressed in transfected cells; grown as tumours in NSG mice for the in vivo units
Experimental: (§2) 1.4.10. Animal Models: Animal studies were performed according to the protocols approved by the JHU Animal Care and Use Committee (ACUC). Six-to-eight week old, female, non-obese diabetic severe-combined immunodeficient gamma (NSG) mice were obtained from the JHU Immune Compromised Animal Core. Mice were implanted subcutaneously in opposite sides of the upper flanks with 10×10^6 of CHO-PDL1 and CHO cells. […] 1.4.12. […] For the blocking study, mice were co-injected with 2 mg/kg (50 μg) of unmodified peptide with the radiotracer. The percentage of injected dose per gram of tissue (% ID/g) values were calculated based on signal decay correction and normalization to external [^64Cu] standards, which were measured in triplicate. Biodistribution data shown is mean±the standard error of the mean (SEM).

in vivo = assay: in vivo; set-up: species or system mouse; details: female, mouse, in vivo, iv, 40 uCi, total radioactivity, radioactivity uptake
Experimental: as §2

hPD-L1 tumors [5] = biological target: T5, hPD-L1 tumors; assay: PET-CT imaging of [64Cu]WL12 in mice with hPD-L1 and CHO tumors; assay type: in vivo, mouse
Experimental: 1.4.10. Animal Models: Animal studies were performed according to the protocols approved by the JHU Animal Care and Use Committee (ACUC). Six-to-eight week old, female, non-obese diabetic severe-combined immunodeficient gamma (NSG) mice were obtained from the JHU Immune Compromised Animal Core. Mice were implanted subcutaneously in opposite sides of the upper flanks with 10×10^6 of CHO-PDL1 and CHO cells. […] 1.4.11. […] Mice were maintained at 1% Isofluorane levels during imaging. PET images were acquired in two bed positions at 10 min/bed in an ARGUS small-animal PET/CT scanner (Sedecal, Madrid, Spain). A CT scan (512 projections) was performed at the end of each PET scan for anatomical co-registration. PET data were reconstructed using the two-dimensional ordered subsets-expectation maximization algorithm (2D-OSEM) and corrected for dead time and radioactive decay. The % ID per cc values were calculated based on a calibration factor obtained from a known radioactive quantity. Final data visualization and image generation was accomplished using Amira® (FEI, Hillsboro, Oreg.).

PD-L1 in hPD-L1 cells = biological target: T6, PD-L1 in hPD-L1 cells (Homo sapiens, UniProt Q9NZQ7); assay: In vitro binding of [64Cu]WL12 to hPD-L1 and CHO cells; assay type: cell-based
T6 construct: expressed in transfected cells; grown as tumours in NSG mice for the in vivo units
Experimental: as §1

PD-L1 in MDAMB231 tumors [6] = biological target: T7, PD-L1 in MDAMB231 tumors (Homo sapiens, UniProt Q9NZQ7); assay: Tumor PD-L1 engagement by PD-L1 mAbs measured with [64Cu]WL12, MDAMB231 xenografts; assay type: in vivo; details: mAb 24 h prior, 120 min after tracer injection, ex vivo
T7 construct: MDAMB231 breast cancer cells, which naturally express PD-L1; endogenous in cells; host or cells: MDAMB231 (ATCC); as xenografts in NSG mice for the in vivo units
Experimental: To evaluate the effect of dose on tumor PD-L1 occupancy at the tumor, mice bearing MDAMB231 tumors were injected with escalating doses of AtzMab from 0.009 to 24 mg/kg body weight.

PD-L1 in MDAMB231 tumors [7] = biological target: T7, PD-L1 in MDAMB231 tumors; assay: as above; assay type: in vivo; details: AtzMab 20 mg/kg, AveMab 10 mg/kg, DurMab 10 mg/kg, 24 h prior to tracer
[8] = biological target: T8, PD-L1 in HCC827, H226, hPD-L1 and MDAMB231 cells (Homo sapiens, UniProt Q9NZQ7); assay: [64Cu]WL12 binding to PD-L1-positive cells in the presence of 60 nM mAbs; assay type: cell-based; details: 60 nM mAb vs PBS control
T8 construct: Each of which naturally expresses PD-L1; endogenous in cells; host or cells: HCC827, H226, MDAMB231 (endogenous) and CHO-hPD-L1 (stably transfected)
Experimental: Non-interacting residues are shown in gray. […] Mean fluorescence intensities were determined by flow cytometry.
HCC827 and H226 non-small cell lung cancer (NSCLC) cells also were tested.

[9] = mouse, in vivo, iv, 40 uCi, 1 h

T6 sequence (Q9NZQ7 19-290): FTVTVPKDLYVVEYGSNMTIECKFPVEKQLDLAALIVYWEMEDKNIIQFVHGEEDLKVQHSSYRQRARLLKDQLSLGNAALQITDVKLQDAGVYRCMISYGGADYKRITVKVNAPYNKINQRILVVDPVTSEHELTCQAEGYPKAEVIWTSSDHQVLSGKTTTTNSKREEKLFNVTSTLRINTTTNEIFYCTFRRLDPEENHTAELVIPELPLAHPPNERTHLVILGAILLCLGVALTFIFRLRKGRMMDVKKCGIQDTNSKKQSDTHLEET
T5 sequence (Q9NZQ7 19-290): as above
T3 sequence (Q9NZQ7 19-290): as above
T7 sequence (Q9NZQ7 19-290): as above
T1 sequence (Q9NZQ7 19-290): as above
T8 sequence (Q9NZQ7 19-290): as above
T2 sequence (Q9NZQ7 19-290): as above
T4 sequence (Q9NZQ7 19-290): as above

Molecule: [^111In]AtzMab: 111In-radiolabeled atezolizumab
- uptake in PD-L1high H2444 vs PD-L1low H1155 NSCLC xenografts [1]: Increased uptake
- uptake in PD-L1high MDAMB231 vs PD-L1low SUM149 TNBC xenografts [1]: Increased uptake

- uptake of radioactivity in MDAMB231 cells compared to SUM149 cells (PD-L1 in MDAMB231 cells): Two-fold higher
- increase in radioactivity uptake, doxycycline treated vs. untreated cells ([2]; A549-iPDL1 cells): 5.5 fold
- accumulation in A549-iPDL1 tumors higher than in A549 control tumors [3]: 65%
- reduction in % ID/g values in hPD-L1 tumors (hPD-L1 tumors [4]; co-injected excess WL12 (50 μg, 2 mg/kg), 2 h): > 75%
- change of uptake in control CHO tumors with blocking dose (hPD-L1 tumors [4]; co-injected excess WL12, 2 h): no significant difference
- affinity for mouse PD-L1 (hPD-L1 tumors [4]; inferred from low uptake in spleen, thymus, brown fat): very low or no affinity
- uptake in hPD-L1 tumor compared to CHO tumor, PET-CT (hPD-L1 tumors [5]; 24 h after injection): Increased uptake
- correlation (r) of mean fluorescence intensity with uptake of radioactivity (PD-L1 in hPD-L1 cells; hPD-L1, MDAMB231, SUM149, CHO cells): 0.9977
- reduction in bound [64Cu]WL12 (PD-L1 in hPD-L1 cells; hPD-L1 cells, 1 μM blocking dose of WL12): > 95%
- increase in bound radioactivity compared to negative control CHO cells (PD-L1 in hPD-L1 cells; hPD-L1 cells, 1 h incubation): 43 fold
- uptake of the incubated dose (PD-L1 in hPD-L1 cells; hPD-L1 cells, 1 h incubation): > 50%
Molecule: CCCC[C@H]1C(=O)N(C)[C@@H](CCCC)C(=O)N[C@@H](CCCNC(=O)CCC(C(=O)O)N2CCN(CC(=O)O)CCN(CC(=O)O)CCN(CC(=O)O)CC2)C(=O)N[C@H](C(=O)NCC(N)=O)CSCC(=O)N[C@@H](Cc2ccc(O)cc2)C(=O)N(C)[C@@H](C)C(=O)N[C@@H](CC(N)=O)C(=O)N2CCC[C@H]2C(=O)N[C@@H](Cc2c[nH]cn2)C(=O)N[C@@H](CC(C)C)C(=O)N2C[C@H](O)C[C@H]2C(=O)N[C@@H](Cc2c[nH]c3ccccc23)C(=O)N[C@@H](CO)C(=O)N[C@@H](Cc2cn(C)c3ccccc23)C(=O)N1C (single isomer, unassigned) [[^64Cu]WL12, metal not drawn]
- tumor-to-blood ratio (hPD-L1 tumors [4]; [9]): 4.7±1.2
- tumor-to-muscle ratio (hPD-L1 tumors [4]; [9]): 25.6±1.9
- tissue uptake at 1 h (in vivo; control CHO tumor): 4 ± 0.6 %ID/g
- tissue uptake at 1 h (in vivo; hPD-L1 tumors): 14.9 ± 0.8 %ID/g
- tissue uptake at 1 h (in vivo; kidneys): 34.4 ± 3.1 %ID/g
- tissue uptake at 1 h (in vivo; liver): 24.2 ± 2.5 %ID/g
- time of increased uptake in hPD-L1 tumors, PET (hPD-L1 tumors [5]; 150 μCi i.v.): as early as 10 min and retained through 24 h post-injection

- less uptake of [64Cu]WL12 in tumors vs saline controls (PD-L1 in MDAMB231 tumors [6]): approximately 60%
- [64Cu]WL12 uptake in MDAMB231 xenografts (PD-L1 in MDAMB231 tumors [7]): significantly reduced
- decrease of [64Cu]WL12 binding to doxycycline-treated A549-iPDL1 cells ([2]; 60 nM mAb): 65%
- [64Cu]WL12 binding to PD-L1-positive cells [8]: inhibited
Molecule: DurMab: FDA-approved PD-L1 mAb durvalumab
